Paper PMC12096823, “SloR-SRE binding to the S. mutans mntH promoter is cooperative”
Changes are numbered by the printed parent chain.

Columns and labels:
[1] = target: T1, SloR (Streptococcus mutans UA159?) (UniProt I6L923); assay: EMSA; details: BLI: PBS pH 7.2, 0.1% Tween-20, 100 uM MnCl2, 30 C; EMSA: 60-200 nM SloR, 16 uL, 12% native gel, buffer as cited; footprinting: 8.4 mM NaH2PO4, 11.6 mM …
T1 sequence: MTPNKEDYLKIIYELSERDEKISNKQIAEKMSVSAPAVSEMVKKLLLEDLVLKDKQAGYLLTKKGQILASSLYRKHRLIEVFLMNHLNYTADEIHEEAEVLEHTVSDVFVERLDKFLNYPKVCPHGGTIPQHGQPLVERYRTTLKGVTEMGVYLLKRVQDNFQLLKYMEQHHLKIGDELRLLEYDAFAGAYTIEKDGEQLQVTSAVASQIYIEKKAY

[2] = target: T1, SloR (Streptococcus mutans UA159?); assay: footprinting; details: BLI: PBS pH 7.2, 0.1% Tween-20, 100 uM MnCl2, 30 C; EMSA: 60-200 nM SloR, 16 uL, 12% native gel, buffer as cited; footprinting: 8.4 mM NaH2PO4, 11.6 mM …
SloR (BLI preparation) [3] = target: T2, SloR (BLI preparation) (UniProt I6L923 1-217); assay: BLI; 100 uM MnCl2; BLI: PBS pH 7.2, 0.1% Tween-20, 100 uM MnCl2, 30 C; EMSA: 60-200 nM SloR, 16 uL, 12% native gel, buffer as cited; footprinting: 8.4 mM NaH2PO4, 11.6 mM Na2HPO4, 50 mM NaCl, 5 mM MgCl2, 10 ug/mL BSA, 200 ug/mL salmon sperm DNA, 7.5 uM MnCl2, 30 C; details: protein: recombinant; tags: immobilized on NTA biosensor; chain copies: 2; blunt
T2 sequence: T1 sequence

SloR (BLI preparation) [4] = target: T2, SloR (BLI preparation); assay: BLI; 100 uM MnCl2; DNA up to 20 uM; BLI: PBS pH 7.2, 0.1% Tween-20, 100 uM MnCl2, 30 C; EMSA: 60-200 nM SloR, 16 uL, 12% native gel, buffer as cited; footprinting: 8.4 mM NaH2PO4, 11.6 mM Na2HPO4, 50 mM NaCl, 5 mM MgCl2, 10 ug/mL BSA, 200 ug/mL salmon sperm DNA, 7.5 uM MnCl2, 30 C; details: protein: recombinant; tags: immobilized on NTA biosensor; chain copies: 2; blunt
SloR (BLI preparation) [5] = target: T2, SloR (BLI preparation); assay: BLI; 100 uM MnCl2; Kd only in figure; BLI: PBS pH 7.2, 0.1% Tween-20, 100 uM MnCl2, 30 C; EMSA: 60-200 nM SloR, 16 uL, 12% native gel, buffer as cited; footprinting: 8.4 mM NaH2PO4, 11.6 mM Na2HPO4, 50 mM NaCl, 5 mM MgCl2, 10 ug/mL BSA, 200 ug/mL salmon sperm DNA, 7.5 uM MnCl2, 30 C; details: protein: recombinant; tags: immobilized on NTA biosensor; chain copies: 2; label: 5' 32P in EMSA; blunt
SloR [6] = target: T3, SloR (UniProt I6L923 1-217); assay: EMSA; 60 nM SloR; BLI: PBS pH 7.2, 0.1% Tween-20, 100 uM MnCl2, 30 C; EMSA: 60-200 nM SloR, 16 uL, 12% native gel, buffer as cited; footprinting: 8.4 mM NaH2PO4, 11.6 mM Na2HPO4, 50 mM NaCl, 5 mM MgCl2, 10 ug/mL BSA, 200 ug/mL salmon sperm DNA, 7.5 uM MnCl2, 30 C; details: protein: recombinant, tags: native (untagged) SloR purified for EMSA and footprinting, chain copies: 2, blunt
T3 sequence: T1 sequence

SloR [7] = target: T3, SloR; assay: EMSA; BLI: PBS pH 7.2, 0.1% Tween-20, 100 uM MnCl2, 30 C; EMSA: 60-200 nM SloR, 16 uL, 12% native gel, buffer as cited; footprinting: 8.4 mM NaH2PO4, 11.6 mM Na2HPO4, 50 mM NaCl, 5 mM MgCl2, 10 ug/mL BSA, 200 ug/mL salmon sperm DNA, 7.5 uM MnCl2, 30 C; details: protein: recombinant; tags: native (untagged) SloR purified for EMSA and footprinting; chain copies: 2; label: 5' 32P; blunt
SloR [8] = target: T3, SloR; assay: EMSA; 60 nM SloR; two band shifts, intensity 1.3 and 0.03 AU; BLI: PBS pH 7.2, 0.1% Tween-20, 100 uM MnCl2, 30 C; EMSA: 60-200 nM SloR, 16 uL, 12% native gel, buffer as cited; footprinting: 8.4 mM NaH2PO4, 11.6 mM Na2HPO4, 50 mM NaCl, 5 mM MgCl2, 10 ug/mL BSA, 200 ug/mL salmon sperm DNA, 7.5 uM MnCl2, 30 C; details: protein: recombinant; tags: native (untagged) SloR purified for EMSA and footprinting; chain copies: 2; label: 5' 32P; blunt

For “GCATACTTAACATATGCTGTTTTTTATGCTATAATGCAATTAACCCAATTATATTAGAAAAGAGATTTTCAAAATGAAAACTCATCCAAAAAAGCAATCACTCAGCGAGGT (double strand) [mntH 111-bp probe (-75 to +36 of coding)]”, the binding [1] was “no binding”.

“GATTGTTTAGACATCTCTGATTAATTTTCCATAATCTCTATTGTGTTTTATACTGTCAGTAATTCTTACAAACTCTTTATATTCAGTAATAATAGGTACACCTTTTTTAATTTTTAAGCATACTTAACATATGCTGTTTTTTATGCTATAATGCAATTAACCCAATTATATTAGAAAAGAGATTTTCAAAATGAAAACTCATCCAAAAAAGCAATCACTCAGCGAGGTCAATCAGAGCGTTCGTGTTCCTAAAAATGCCTCTTTTTTAACAACTTTAAGAGCTTTTTTAGG (double strand) [mntH 291-bp footprint amplicon]” was tested, and the binding [2] was “binds”.

B1: sloA.72.WT (dsDNA)
DNA 1: AGCCTTAATTAATGTAGATTATATTTTTAATTGAACTGAATTAAAAATATAATCCAATATAATGAATATTTT
DNA 2: AAAATATTCATTATATTGGATTATATTTTTAATTCAGTTCAATTAAAAATATAATCTACATTAATTAAGGCT
B1 was tested, and the Kd (SloR (BLI preparation) [3]) was about 31 nM.

B2: mntH.90.WT (dsDNA)
DNA 1: GTAATTCTTACAAACTCTTTATATTCAGTAATAATAGGTACACCTTTTTTAATTTTTAAGCATACTTAACATATGCTGTTTTTTATGCTA
DNA 2: TAGCATAAAAAACAGCATATGTTAAGTATGCTTAAAAATTAAAAAAGGTGTACCTATTATTACTGAATATAAAGAGTTTGTAAGAATTAC
Work on B2 yielded a Kd (SloR (BLI preparation) [3]) of about 33 nM.

B3: mntH.22.SRE2.WT (dsDNA)
DNA 1: AATAATAGGTACACCTTTTTTA
DNA 2: TAAAAAAGGTGTACCTATTATT
B3: no binding (SloR (BLI preparation) [4]).

B4: mntH.22.SRE1.WT (dsDNA)
DNA 1: ATTTTTAAGCATACTTAACATA
DNA 2: TATGTTAAGTATGCTTAAAAAT
B4: binds (SloR (BLI preparation) [5]); binds (SloR [6]; label: 5' 32P in EMSA).

B5: mntH.22.SRE1.10IR (SRE1 spacer with -10 SRE IRs) (dsDNA)
DNA 1: GCAATTAAGCATACTATATTAG
DNA 2: CTAATATAGTATGCTTAATTGC
B5: no binding (SloR [7]).

B6: mntH 159-bp promoter probe (dsDNA)
DNA 1: TCTCTATTGTGTTTTATACTGTCAGTAATTCTTACAAACTCTTTATATTCAGTAATAATAGGTACACCTTTTTTAATTTTTAAGCATACTTAACATATGCTGTTTTTTATGCTATAATGCAATTAACCCAATTATATTAGAAAAGAGATTTTCAAAATG
DNA 2: CATTTTGAAAATCTCTTTTCTAATATAATTGGGTTAATTGCATTATAGCATAAAAAACAGCATATGTTAAGTATGCTTAAAAATTAAAAAAGGTGTACCTATTATTACTGAATATAAAGAGTTTGTAAGAATTACTGACAGTATAAAACACAATAGAGA
B6: binds (SloR [7]).

B7: mntH 100-bp deletion amplicon (dsDNA)
DNA 1: AGGTACACCTTTTTTAATTTTTAAGCATACTTAACATATGCTGTTTTTTATGCTATAATGCAATTAACCCAATTATATTAGAAAAGAGATTTTCAAAATG
DNA 2: CATTTTGAAAATCTCTTTTCTAATATAATTGGGTTAATTGCATTATAGCATAAAAAACAGCATATGTTAAGTATGCTTAAAAATTAAAAAAGGTGTACCT
B7: binds (SloR [7]).

B8: mntH.100.WT (dsDNA)
DNA 1: TACTGTCAGTAATTCTTACAAACTCTTTATATTCAGTAATAATAGGTACACCTTTTTTAATTTTTAAGCATACTTAACATATGCTGTTTTTTATGCTATA
DNA 2: TATAGCATAAAAAACAGCATATGTTAAGTATGCTTAAAAATTAAAAAAGGTGTACCTATTATTACTGAATATAAAGAGTTTGTAAGAATTACTGACAGTA
B8: binds (SloR [8]).

B9: mntH.100.CC.CT (SRE1+SRE2 mutant) (dsDNA)
DNA 1: B8 DNA 1 with A44C, G45T, A66C, A67C
DNA 2: B8 DNA 2 with T34G, T35G, C56A, T57G
B9: no binding (SloR [6]; label: 5' 32P).

B10: mntH.22.SRE1.w10.spcr (spacer variant) (dsDNA)
DNA 1: ATTTTTAACCCAATTTAACATA
DNA 2: TATGTTAAATTGGGTTAAAAAT
B10: no binding (SloR [7]).

B11: mntH.22.SRE1.CC (left IR mutant) (dsDNA)
DNA 1: ATTTTTCCGCATACTTAACATA
DNA 2: TATGTTAAGTATGCGGAAAAAT
B11: no binding (SloR [7]).
